Consider one protein from doi:10.1101/2024.05.17.594632 (bioRxiv, 2024).

The series concerns the molecule itself. The series is described as follows: cryo-EM structure.

B1: full-length phytochrome from Pseudomonas aeruginosa (PaBphP) (enzyme)
chain: MTSITPVTLANCEDEPIHVPGAIQPHGALVTLRADGMVLAASENIQALLGFVASPGSYLTQEQVGPEVLRMLEEGLTGNGPWSNSVETRIGEHLFDVIGHSYKEVFYLEFEIRTADTLSITSFTLNAQRIIAQVQLHNDTASLLSNVTDELRRMTGYDRVMAYRFRHDDSGEVVAESRREDLESYLGQRYPASDIPAQARRLYIQNPIRLIADVAYTPMRVFPALNPETNESFDLSYSVLRSVSPIHCEYLTNMGVRASMSISIVVGGKLWGLFSCHHMSPKLIPYPVRMSFQIFSQVCSAIVERLEQGRIAELLRVSTERRLALARRARDADDLFGALAHPDDGIAALIPCDGALVMLGGRTLSIRGDFERQAGNVLQRLQRDPERDIYHTDNWPQPSEDSPDGGDCCGVLAIRFHRQESGWIFWFRHEEVHRIRWGGKPEKLLTIGPSGPRLTPRGSFEAWEEVVRGHSTPWSETDLAIAEKLRLDLMELCLNHAAEVDRMRQRLIAVLGHDLRNPLQSISMAAALLSSSDTRTTELRQHISASSSRMERLVSQILDMSRLQSGIGLTVNPVDTDVSQLVRQIVCETDVAYPGLVIEIAIDPQVRAVVDPDRYAQVAANLLSNARHHGLPGRPVLVTLTRQGDEVCLSVLNETSGLSEAQLANLFEPFKRESADNQRNRNGLGIGLYISQAIAQAHQGRIDVDCRDDVITFCLRLPVRQAETGSSS
modifications: biliverdin chromophore (15Z in Pr, 15E in Pfr)
With B1, the stoichiometry N (commonly the number of molecules, sites or subunits per partner or assembly) turned out to be 2.
